Patent US20110118131A1 (published 2011)

Legend:
IL-1β [1] = target: T1, IL-1β (UniProt P01584 117-269); test: Biacore, Fab periplasmic extract; -1 = no binding by the table's footnote
T1 construct: Antigen of XPA23

IL-1β [2] = target: IL-1β (UniProt P01584 117-269); test: Biacore kinetic titration, IL-1β amine coupled to CM5 chip, 25 C
Protocol: In an exemplary method, an antigen such as IL-1β is amine coupled to a CM5 sensor chip. Each sample (e.g., from lowest to highest concentration) may be injected for 240 seconds at a flow rate of 30 µl/min at a selected temperature (e.g., 25° C.). Sample are allowed to dissociate for 30 seconds except the highest concentration which may be permitted 300 seconds to dissociate. The assay is run at 25° C.
Biaevaluation software (e.g., Biacore 2000 evaluation software) is used to calculate dissociation rates of individual samples and the relative amount of sample bound to each test surface. The data is fit to an appropriate kinetic model (e.g., the kinetic titration model).

B1: XPA23 heavy chain G102P (Fab, V domains shown)
VH: EVQLLESGGGLVQPGGSLRLSCAASGFTFSKYFMFWVRQAPGKGLEWVSVISPSGGMTRYADSVKGRFTISRDNSKNTLYLQMNSLRAEDTAVYYCARVGYPGNSDYWGQGTLVTVSS
VL: DIQMTQSPSSVSASVGDRLTIICRASQDINRWLAWYQQTPGNAPKLLIHSATSLQSGVPSRFSGSGSGTDFTLTINSLQPEDFATYYCQQADSFPLTFGGGTKVEIK
notes: Fab, periplasmic extract; also called C5A G102P
Q: Does B1 bind (IL-1β [1])?
A: no binding

B2: XPA23 (IL-1 antibody) (antibody, V domains shown)
VH: EVQLLESGGGLVQPGGSLRLSCAASGFTFSKYFMFWVRQAPGKGLEWVSVISPSGGMTRYADSVKGRFTISRDNSKNTLYLQMNSLRAEDTAVYYCARVGYGGNSDYWGQGTLVTVSS
VL: DIQMTQSPSSVSASVGDRLTIICRASQDINRWLAWYQQTPGNAPKLLIHSATSLQSGVPSRFSGSGSGTDFTLTINSLQPEDFATYYCQQADSFPLTFGGGTKVEIK
notes: also called cA5; C5A
Q: With B2 as the binder, how does the Kd (IL-1β [2]) read?
A: 46 nM

B3: XPA23 heavy chain S30V (Fab, V domains shown)
VH: EVQLLESGGGLVQPGGSLRLSCAASGFTFVKYFMFWVRQAPGKGLEWVSVISPSGGMTRYADSVKGRFTISRDNSKNTLYLQMNSLRAEDTAVYYCARVGYGGNSDYWGQGTLVTVSS
VL: DIQMTQSPSSVSASVGDRLTIICRASQDINRWLAWYQQTPGNAPKLLIHSATSLQSGVPSRFSGSGSGTDFTLTINSLQPEDFATYYCQQADSFPLTFGGGTKVEIK
notes: Fab, periplasmic extract; also called C5A S30V
Q: Does B3 bind (IL-1β [1])?
A: no binding

B4: XPA23 heavy chain M57P (Fab, V domains shown)
VH: EVQLLESGGGLVQPGGSLRLSCAASGFTFSKYFMFWVRQAPGKGLEWVSVISPSGGPTRYADSVKGRFTISRDNSKNTLYLQMNSLRAEDTAVYYCARVGYGGNSDYWGQGTLVTVSS
VL: DIQMTQSPSSVSASVGDRLTIICRASQDINRWLAWYQQTPGNAPKLLIHSATSLQSGVPSRFSGSGSGTDFTLTINSLQPEDFATYYCQQADSFPLTFGGGTKVEIK
notes: Fab, periplasmic extract; also called C5A M57P
Q: Does B4 bind (IL-1β [1])?
A: no binding

B5: XPA23 heavy chain S105L (Fab, V domains shown)
VH: EVQLLESGGGLVQPGGSLRLSCAASGFTFSKYFMFWVRQAPGKGLEWVSVISPSGGMTRYADSVKGRFTISRDNSKNTLYLQMNSLRAEDTAVYYCARVGYGGNLDYWGQGTLVTVSS
VL: DIQMTQSPSSVSASVGDRLTIICRASQDINRWLAWYQQTPGNAPKLLIHSATSLQSGVPSRFSGSGSGTDFTLTINSLQPEDFATYYCQQADSFPLTFGGGTKVEIK
notes: Fab, periplasmic extract; also called C5A S105L
Q: Does B5 bind (IL-1β [1])?
A: no binding

B6: XPA23 heavy chain R59I (Fab, V domains shown)
VH: EVQLLESGGGLVQPGGSLRLSCAASGFTFSKYFMFWVRQAPGKGLEWVSVISPSGGMTIYADSVKGRFTISRDNSKNTLYLQMNSLRAEDTAVYYCARVGYGGNSDYWGQGTLVTVSS
VL: DIQMTQSPSSVSASVGDRLTIICRASQDINRWLAWYQQTPGNAPKLLIHSATSLQSGVPSRFSGSGSGTDFTLTINSLQPEDFATYYCQQADSFPLTFGGGTKVEIK
notes: Fab, periplasmic extract; also called C5A R59I
Q: Does B6 bind (IL-1β [1])?
A: no binding

B7: XPA23 heavy chain R59V (Fab, V domains shown)
VH: EVQLLESGGGLVQPGGSLRLSCAASGFTFSKYFMFWVRQAPGKGLEWVSVISPSGGMTVYADSVKGRFTISRDNSKNTLYLQMNSLRAEDTAVYYCARVGYGGNSDYWGQGTLVTVSS
VL: DIQMTQSPSSVSASVGDRLTIICRASQDINRWLAWYQQTPGNAPKLLIHSATSLQSGVPSRFSGSGSGTDFTLTINSLQPEDFATYYCQQADSFPLTFGGGTKVEIK
notes: Fab, periplasmic extract; also called C5A R59V
Q: Does B7 bind (IL-1β [1])?
A: no binding

B8: XPA23 heavy chain I51P (Fab, V domains shown)
VH: EVQLLESGGGLVQPGGSLRLSCAASGFTFSKYFMFWVRQAPGKGLEWVSVPSPSGGMTRYADSVKGRFTISRDNSKNTLYLQMNSLRAEDTAVYYCARVGYGGNSDYWGQGTLVTVSS
VL: DIQMTQSPSSVSASVGDRLTIICRASQDINRWLAWYQQTPGNAPKLLIHSATSLQSGVPSRFSGSGSGTDFTLTINSLQPEDFATYYCQQADSFPLTFGGGTKVEIK
notes: Fab, periplasmic extract; also called C5A I51P
Q: Does B8 bind (IL-1β [1])?
A: no binding

B9: XPA23 heavy chain V50P (Fab, V domains shown)
VH: EVQLLESGGGLVQPGGSLRLSCAASGFTFSKYFMFWVRQAPGKGLEWVSPISPSGGMTRYADSVKGRFTISRDNSKNTLYLQMNSLRAEDTAVYYCARVGYGGNSDYWGQGTLVTVSS
VL: DIQMTQSPSSVSASVGDRLTIICRASQDINRWLAWYQQTPGNAPKLLIHSATSLQSGVPSRFSGSGSGTDFTLTINSLQPEDFATYYCQQADSFPLTFGGGTKVEIK
notes: Fab, periplasmic extract; also called C5A V50P
Q: Does B9 bind (IL-1β [1])?
A: no binding

B10: XPA23 heavy chain G102V (Fab, V domains shown)
VH: EVQLLESGGGLVQPGGSLRLSCAASGFTFSKYFMFWVRQAPGKGLEWVSVISPSGGMTRYADSVKGRFTISRDNSKNTLYLQMNSLRAEDTAVYYCARVGYVGNSDYWGQGTLVTVSS
VL: DIQMTQSPSSVSASVGDRLTIICRASQDINRWLAWYQQTPGNAPKLLIHSATSLQSGVPSRFSGSGSGTDFTLTINSLQPEDFATYYCQQADSFPLTFGGGTKVEIK
notes: Fab, periplasmic extract; also called C5A G102V
Q: Does B10 bind (IL-1β [1])?
A: no binding

B11: XPA23 heavy chain R59A (Fab, V domains shown)
VH: EVQLLESGGGLVQPGGSLRLSCAASGFTFSKYFMFWVRQAPGKGLEWVSVISPSGGMTAYADSVKGRFTISRDNSKNTLYLQMNSLRAEDTAVYYCARVGYGGNSDYWGQGTLVTVSS
VL: DIQMTQSPSSVSASVGDRLTIICRASQDINRWLAWYQQTPGNAPKLLIHSATSLQSGVPSRFSGSGSGTDFTLTINSLQPEDFATYYCQQADSFPLTFGGGTKVEIK
notes: Fab, periplasmic extract; also called C5A R59A
Q: Does B11 bind (IL-1β [1])?
A: no binding

B12: XPA23 heavy chain V99P (Fab, V domains shown)
VH: EVQLLESGGGLVQPGGSLRLSCAASGFTFSKYFMFWVRQAPGKGLEWVSVISPSGGMTRYADSVKGRFTISRDNSKNTLYLQMNSLRAEDTAVYYCARPGYGGNSDYWGQGTLVTVSS
VL: DIQMTQSPSSVSASVGDRLTIICRASQDINRWLAWYQQTPGNAPKLLIHSATSLQSGVPSRFSGSGSGTDFTLTINSLQPEDFATYYCQQADSFPLTFGGGTKVEIK
notes: Fab, periplasmic extract; also called C5A V99P
Q: Does B12 bind (IL-1β [1])?
A: no binding

B13: XPA23 heavy chain Y101G (Fab, V domains shown)
VH: EVQLLESGGGLVQPGGSLRLSCAASGFTFSKYFMFWVRQAPGKGLEWVSVISPSGGMTRYADSVKGRFTISRDNSKNTLYLQMNSLRAEDTAVYYCARVGGGGNSDYWGQGTLVTVSS
VL: DIQMTQSPSSVSASVGDRLTIICRASQDINRWLAWYQQTPGNAPKLLIHSATSLQSGVPSRFSGSGSGTDFTLTINSLQPEDFATYYCQQADSFPLTFGGGTKVEIK
notes: Fab, periplasmic extract; also called C5A Y101G
Q: Does B13 bind (IL-1β [1])?
A: no binding

B14: XPA23 heavy chain K31P (Fab, V domains shown)
VH: EVQLLESGGGLVQPGGSLRLSCAASGFTFSPYFMFWVRQAPGKGLEWVSVISPSGGMTRYADSVKGRFTISRDNSKNTLYLQMNSLRAEDTAVYYCARVGYGGNSDYWGQGTLVTVSS
VL: DIQMTQSPSSVSASVGDRLTIICRASQDINRWLAWYQQTPGNAPKLLIHSATSLQSGVPSRFSGSGSGTDFTLTINSLQPEDFATYYCQQADSFPLTFGGGTKVEIK
notes: Fab, periplasmic extract; also called C5A K31P
Q: Does B14 bind (IL-1β [1])?
A: no binding

B15: XPA23 heavy chain S30P (Fab, V domains shown)
VH: EVQLLESGGGLVQPGGSLRLSCAASGFTFPKYFMFWVRQAPGKGLEWVSVISPSGGMTRYADSVKGRFTISRDNSKNTLYLQMNSLRAEDTAVYYCARVGYGGNSDYWGQGTLVTVSS
VL: DIQMTQSPSSVSASVGDRLTIICRASQDINRWLAWYQQTPGNAPKLLIHSATSLQSGVPSRFSGSGSGTDFTLTINSLQPEDFATYYCQQADSFPLTFGGGTKVEIK
notes: Fab, periplasmic extract; also called C5A S30P
Q: Does B15 bind (IL-1β [1])?
A: no binding

B16: XPA23 heavy chain S52I (Fab, V domains shown)
VH: EVQLLESGGGLVQPGGSLRLSCAASGFTFSKYFMFWVRQAPGKGLEWVSVIIPSGGMTRYADSVKGRFTISRDNSKNTLYLQMNSLRAEDTAVYYCARVGYGGNSDYWGQGTLVTVSS
VL: DIQMTQSPSSVSASVGDRLTIICRASQDINRWLAWYQQTPGNAPKLLIHSATSLQSGVPSRFSGSGSGTDFTLTINSLQPEDFATYYCQQADSFPLTFGGGTKVEIK
notes: Fab, periplasmic extract; also called C5A S52I
Q: Does B16 bind (IL-1β [1])?
A: no binding

B17: XPA23 heavy chain K31T (Fab, V domains shown)
VH: EVQLLESGGGLVQPGGSLRLSCAASGFTFSTYFMFWVRQAPGKGLEWVSVISPSGGMTRYADSVKGRFTISRDNSKNTLYLQMNSLRAEDTAVYYCARVGYGGNSDYWGQGTLVTVSS
VL: DIQMTQSPSSVSASVGDRLTIICRASQDINRWLAWYQQTPGNAPKLLIHSATSLQSGVPSRFSGSGSGTDFTLTINSLQPEDFATYYCQQADSFPLTFGGGTKVEIK
notes: Fab, periplasmic extract; also called C5A K31T
Q: Does B17 bind (IL-1β [1])?
A: no binding

B18: XPA23 heavy chain S52L (Fab, V domains shown)
VH: EVQLLESGGGLVQPGGSLRLSCAASGFTFSKYFMFWVRQAPGKGLEWVSVILPSGGMTRYADSVKGRFTISRDNSKNTLYLQMNSLRAEDTAVYYCARVGYGGNSDYWGQGTLVTVSS
VL: DIQMTQSPSSVSASVGDRLTIICRASQDINRWLAWYQQTPGNAPKLLIHSATSLQSGVPSRFSGSGSGTDFTLTINSLQPEDFATYYCQQADSFPLTFGGGTKVEIK
notes: Fab, periplasmic extract; also called C5A S52L
Q: Does B18 bind (IL-1β [1])?
A: no binding

B19: XPA23 heavy chain V99L (Fab, V domains shown)
VH: EVQLLESGGGLVQPGGSLRLSCAASGFTFSKYFMFWVRQAPGKGLEWVSVISPSGGMTRYADSVKGRFTISRDNSKNTLYLQMNSLRAEDTAVYYCARLGYGGNSDYWGQGTLVTVSS
VL: DIQMTQSPSSVSASVGDRLTIICRASQDINRWLAWYQQTPGNAPKLLIHSATSLQSGVPSRFSGSGSGTDFTLTINSLQPEDFATYYCQQADSFPLTFGGGTKVEIK
notes: Fab, periplasmic extract; also called C5A V99L
Q: Does B19 bind (IL-1β [1])?
A: no binding

B20: XPA23 heavy chain Y32A (Fab, V domains shown)
VH: EVQLLESGGGLVQPGGSLRLSCAASGFTFSKAFMFWVRQAPGKGLEWVSVISPSGGMTRYADSVKGRFTISRDNSKNTLYLQMNSLRAEDTAVYYCARVGYGGNSDYWGQGTLVTVSS
VL: DIQMTQSPSSVSASVGDRLTIICRASQDINRWLAWYQQTPGNAPKLLIHSATSLQSGVPSRFSGSGSGTDFTLTINSLQPEDFATYYCQQADSFPLTFGGGTKVEIK
notes: Fab, periplasmic extract; also called C5A Y32A
Q: Does B20 bind (IL-1β [1])?
A: no binding
